Test results: PMC3310976 (Chromosoma, 2011)

Columns and labels:
[1] = target: T1, His-tagged (6x) Drosophila histone H1 fusion protein (Drosophila, UniProt P02255 1-256); test: pull-down
T1 sequence (looked up): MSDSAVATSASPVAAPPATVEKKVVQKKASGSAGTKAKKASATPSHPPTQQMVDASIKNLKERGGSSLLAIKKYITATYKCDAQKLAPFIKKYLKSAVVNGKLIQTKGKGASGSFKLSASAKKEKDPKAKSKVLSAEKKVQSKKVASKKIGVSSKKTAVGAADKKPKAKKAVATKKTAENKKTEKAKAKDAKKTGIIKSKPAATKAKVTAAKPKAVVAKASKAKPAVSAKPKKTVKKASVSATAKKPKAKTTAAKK

[2] = target: T2, full-length Drosophila histone H1 fusion protein with a maltose binding protein-tag (Drosophila, UniProt P02255 1-256); test: far-Western, overlay or dot blot
T2 sequence (looked up): T1 sequence (looked up)

B1: GST-tagged Chromator chromodomain (219-277) (domain or fragment, Drosophila, UniProt Q86BS3 219-277, looked up)
chain: TEEPVEKIVAKRFNPRRKTHEYLVKWVDRSHHENTWEVMANLERVPYFLQMFEKQLARQ
Does B1 bind [1]?
Result: binds

Does B1 bind [2]?
Result: binds
